The values below come from the supplement of paper PMC5998384.

Data set [1] deals with HeLa Kyoto. Briefly: solubility change mitosis vs G1/S (difference of NP-40 vs SDS log2 ratios) (log2 ratio difference); higher = more soluble in mitosis.
The subject of data set [2] is HeLa Kyoto. The experiment in a line: solubility in G1/S (NP-40 vs SDS abundance) (log2 ratio); higher = more soluble. To be noted: cell cycle stage: G1/S.
The test system of data set [3] is HeLa Kyoto. Briefly: thermal stability score vs G1/S (z-score of summed log2 fold changes over temperatures); higher = more thermally stable than in G1/S.
For data set [4], the system named is HeLa Kyoto. Briefly: melting temperature (median over replicates), in situ; higher = more thermally stable.
Where [5] appears, read: cell cycle stage: early G1 (4.5 h after nocodazole release).
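For melting temperature (median over replicates), in situ in this document: HeLa Kyoto cells synchronized by double thymidine or nocodazole block, proteins quantified by TMT10plex mass spectrometry, three independent biological replicates.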
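For solubility change mitosis vs G1/S (difference of NP-40 vs SDS log2 ratios) in this document: synchronized HeLa Kyoto cells (double thymidine block for G1/S, nocodazole release for mitosis), protein amounts in NP-40 versus SDS lysates quantified by mass spectrometry, three biological replicates.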
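For solubility in G1/S (NP-40 vs SDS abundance) in this document: HeLa Kyoto cells arrested at G1/S by double thymidine block, proteins quantified by TMT10plex mass spectrometry in mild NP-40 versus SDS extracts, three biological replicates.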
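For thermal stability score vs G1/S (z-score of summed log2 fold changes over temperatures) in this document: synchronized HeLa Kyoto cells, proteins quantified by TMT10plex mass spectrometry, three biological replicates, mitosis taken 0.5 h after nocodazole release, G1/S directly after double thymidine block.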

Take “MDALNRNQIGPGCQTQTMVQKGPLDLIETGKGLKVQTDKPHLVSLGSGRLSTAITLLPLEEGRTVIGSAARDISLQGPGLAPEHCYIENLRGTLTLYPCGNACTIDGLPVRQPTRLTQGCMLCLGQSTFLRFNHPAEAKWMKSMIPAGGRAPGPPYSPVPAESESLVNGNHTPQTATRGPSACASHSSLVSSIEKDLQEIMDSLVLEEPGAAGKKPAATSPLSPMANGGRYLLSPPTSPGAMSVGSSYENTSPAFSPLSSPASSGSCASHSPSGQEPGPSVPPLVPARSSSYHLALQPPQSRPSGARSESPRLSRKGGHERPPSPGLRGLLTDSPAATVLAEARRATESPRLGGQLPVVAISLSEYPASGALSQPTSIPGSPKFQPPVPAPRNKIGTLQDRPPSPFREPPGSERVLTTSPSRQLVGRTFSDGLATRTLQPPESPRLGRRGLDSMRELPPLSPSLSRRALSPLPTRTTPDPKLNREVAESPRPRRWAAHGASPEDFSLTLGARGRRTRSPSPTLGESLAPHKGSFSGRLSPAYSLGSLTGASPCQSPCVQRKLSSGDLRVPVTRERKNSITEISDNEDDLLEYHRRQRQERLREQEMERLERQRLETILNLCAEYSRADGGPEAGELPSIGEATAALALAGRRPSRGLAGASGRSSEEPGVATQRLWESMERSDEENLKEECSSTESTQQEHEDAPSTKLQGEVLALEEERAQVLGHVEQLKVRVKELEQQLQESAREAEMERALLQGEREAERALLQKEQKAVDQLQEKLVALETGIQKERDKEAEALETETKLFEDLEFQQLERESRVEEERELAGQGLLRSKAELLRSIAKRKERLAILDSQAGQIRAQAVQESERLARDKNASLQLLQKEKEKLTVLERRYHSLTGGRPFPKTTSTLKEMEKLLLPAVDLEQWYQELMAGLGTGPAAASPHSSPPPLPAKASRQLQVYRSKMDGEATSPLPRTRSGPLPSSSGSSSSSSQLSVATLGRSPSPKSALLTQNGTGSLPRNLAATLQDIETKRQLALQQKGQQVIEEQRRRLAELKQKAAAEAQCQWDALHGAAPFPAGPSGFPPLMHHSILHHLPAGRERGEEGEHAYDTLSLESSDSMETSISTGGNSACSPDNMSSASGLDMGKIEEMEKMLKEAHAEKNRLMESREREMELRRQALEEERRRREQVERRLQSESARRQQLVEKEVKMREKQFSQARPLTRYLPIRKEDFDLKTHIESSGHGVDTCLHVVLSSKVCRGYLVKMGGKIKSWKKRWFVFDRLKRTLSYYVDKHETKLKGVIYFQAIEEVYYDHLRSAAKKRFFRFTMVTESPNPALTFCVKTHDRLYYMVAPSAEAMRIWMDVIVTGAEGYTQFMN [PHLDB1]”: the “solubility change mitosis (log2)” value in the data set with HeLa Kyoto [1] was -0.13. Besides, the “solubility in G1/S (log2)” value in the data set with HeLa Kyoto [2] turned out to be 0.0569. In addition, the thermal stability score worked out at 0.702 in the data set with HeLa Kyoto [3] (setting [5]) and 1.01 in the data set with HeLa Kyoto [3] (cell cycle stage: mitosis). The melting temperature came to 50.8 °C in the data set on HeLa Kyoto [4] (cell cycle stage: G1/S) and 51.1 °C in the data set on HeLa Kyoto [4] (cell cycle stage: mitosis).

For the substance “MDAPGALAQTAAPGPGRKELKIVIVGDGGCGKTSLLMVYSQGSFPEHYAPSVFEKYTASVTVGSKEVTLNLYDTAGQEDYDRLRPLSYQNTHLVLICYDVMNPTSYDNVLIKWFPEVTHFCRGIPMVLIGCKTDLRKDKEQLRKLRAAQLEPITYMQGLSACEQIRAALYLECSAKFRENVEDVFREAAKVALSALKKAQRQKKRRLCLLL [RHOF]”, the “solubility change mitosis (log2)” value with HeLa Kyoto [1] is -0.104. Also, the “solubility in G1/S (log2)” value in the data set on HeLa Kyoto [2] is -0.0436. Further, the thermal stability score in the data set on HeLa Kyoto [3] (setting [5]) amounted to 0.493; in the data set with HeLa Kyoto [3] (cell cycle stage: mitosis) it was 0.369. Besides, the melting temperature came to 53.8 °C in the data set on HeLa Kyoto [4] (cell cycle stage: G1/S) and 53 °C with HeLa Kyoto [4] (cell cycle stage: mitosis).

In the case of “MDAPKAGYAFEYLIETLNDSSHKKFFDVSKLGTKYDVLPYSIRVLLEAAVRNCDGFLMKKEDVMNILDWKTKQSNVEVPFFPARVLLQDFTGIPAMVDFAAMREAVKTLGGDPEKVHPACPTDLTVDHSLQIDFSKCAIQNAPNPGGGDLQKAGKLSPLKVQPKKLPCRGQTTCRGSCDSGELGRNSGTFSSQIENTPILCPFHLQPVPEPETVLKNQEVEFGRNRERLQFFKWSSRVFKNVAVIPPGTGMAHQINLEYLSRVVFEEKDLLFPDSVVGTDSHITMVNGLGILGWGVGGIETEAVMLGLPVSLTLPEVVGCELTGSSNPFVTSIDVVLGITKHLRQVGVAGKFVEFFGSGVSQLSIVDRTTIANMCPEYGAILSFFPVDNVTLKHLEHTGFSKAKLESMETYLKAVKLFRNDQNSSGEPEYSQVIQINLNSIVPSVSGPKRPQDRVAVTDMKSDFQACLNEKVGFKGFQIAAEKQKDIVSIHYEGSEYKLSHGSVVIAAVISCTNNCNPSVMLAAGLLAKKAVEAGLRVKPYIRTSLSPGSGMVTHYLSSSGVLPYLSKLGFEIVGYGCSICVGNTAPLSDAVLNAVKQGDLVTCGILSGNKNFEGRLCDCVRANYLASPPLVVAYAIAGTVNIDFQTEPLGTDPTGKNIYLHDIWPSREEVHRVEEEHVILSMFKALKDKIEMGNKRWNSLEAPDSVLFPWDLKSTYIRCPSFFDKLTKEPIALQAIENAHVLLYLGDSVTTDHISPAGSIARNSAAAKYLTNRGLTPREFNSYGARRGNDAVMTRGTFANIKLFNKFIGKPAPKTIHFPSGQTLDVFEAAELYQKEGIPLIILAGKKYGSGNSRDWAAKGPYLLGVKAVLAESYEKIHKDHLIGIGIAPLQFLPGENADSLGLSGRETFSLTFPEELSPGITLNIQTSTGKVFSVIASFEDDVEITLYKHGGLLNFVARKFS [IREB2]”, the “solubility change mitosis (log2)” value in the data set on HeLa Kyoto [1] is 0.0731. In addition, the “solubility in G1/S (log2)” value in the data set with HeLa Kyoto [2] is 0.000606. The thermal stability score in the data set on HeLa Kyoto [3] (setting [5]) was -0.342; with HeLa Kyoto [3] (cell cycle stage: mitosis), -0.0931. Moreover, the values for the melting temperature with HeLa Kyoto [4] (cell cycle stage: G1/S) and with HeLa Kyoto [4] (cell cycle stage: mitosis) were 50.6 °C and 49.8 °C, respectively.

In the case of MDC1, the “solubility change mitosis (log2)” value with HeLa Kyoto [1] amounted to 0.434. Also, in the data set on HeLa Kyoto [2], the “solubility in G1/S (log2)” value was -0.295. Besides, the thermal stability score was -1.53 with HeLa Kyoto [3] (setting [5]) and 1.05 in the data set with HeLa Kyoto [3] (cell cycle stage: mitosis). Besides, the melting temperature in the data set on HeLa Kyoto [4] (cell cycle stage: G1/S) was determined as 51.2 °C; in the data set with HeLa Kyoto [4] (cell cycle stage: mitosis), 52.1 °C.

Consider “MDCGSVGGQRTQRLPGRQRLLFLPVGLSGRPGGSETSARRCLSALSDGLGALRPRAPAARGGVSRASPLLLLLLVPSPRLAAAAPRRQLGDWERSRLGYAAPPAGRSSAWRCSPGVAAAAGALPQYHGPAPALVSCRRELSLSAGSLQLERKRRDFTSSGSRKLYFDTHALVCLLEDNGFATQQAEIIVSALVKILEANMDIVYKDMVTKMQQEITFQQVMSQIANVKKDMIILEKSEFSALRAENEKIKLELHQLKQQVMDEVIKVRTDTKLDFNLEKSRVKELYSLNEKKLLELRTEIVALHAQQDRALTQTDRKIETEVAGLKTMLESHKLDNIKYLAGSIFTCLTVALGFYRLWI [MCUR1]”, for which, in the data set on HeLa Kyoto [1], the “solubility change mitosis (log2)” value is -0.0249. For the same substance, the “solubility in G1/S (log2)” value in the data set on HeLa Kyoto [2] was determined as 0.186. The thermal stability score in the data set with HeLa Kyoto [3] (setting [5]) is -0.0232; in the data set with HeLa Kyoto [3] (cell cycle stage: mitosis), -0.133. The melting temperature with HeLa Kyoto [4] (cell cycle stage: mitosis) was 52 °C.

As to “MDDIFTQCREGNAVAVRLWLDNTENDLNQGDDHGFSPLHWACREGRSAVVEMLIMRGARINVMNRGDDTPLHLAASHGHRDIVQKLLQYKADINAVNEHGNVPLHYACFWGQDQVAEDLVANGALVSICNKYGEMPVDKAKAPLRELLRERAEKMGQNLNRIPYKDTFWKGTTRTRPRNGTLNKHSGIDFKQLNFLTKLNENHSGELWKGRWQGNDIVVKVLKVRDWSTRKSRDFNEECPRLRIFSHPNVLPVLGACQSPPAPHPTLITHWMPYGSLYNVLHEGTNFVVDQSQAVKFALDMARGMAFLHTLEPLIPRHALNSRSVMIDEDMTARISMADVKFSFQCPGRMYAPAWVAPEALQKKPEDTNRRSADMWSFAVLLWELVTREVPFADLSNMEIGMKVALEGLRPTIPPGISPHVCKLMKICMNEDPAKRPKFDMIVPILEKMQDK [ILK]”, the “solubility change mitosis (log2)” value in the data set on HeLa Kyoto [1] is -0.135. Besides, the “solubility in G1/S (log2)” value with HeLa Kyoto [2] amounted to 0.274. For the same substance, the thermal stability score in the data set with HeLa Kyoto [3] (setting [5]) was found to be 1.36; in the data set on HeLa Kyoto [3] (cell cycle stage: mitosis), 1.76. For the same substance, the melting temperature with HeLa Kyoto [4] (cell cycle stage: G1/S) was determined as 50.1 °C; in the data set with HeLa Kyoto [4] (cell cycle stage: mitosis), 50 °C.
